Results from patent US20260317434 (published 2026).
One block for each binder: values may come before it.

Key:
[1] = molecular target: human IL1RAP Domain1+2 (aa21-234) (human, UniProt Q9NPH3); assay: ELISA
mouse IL1RAP = molecular target: T1, mouse IL1RAP (mouse, UniProt Q61730); assay: ELISA
T1 chain: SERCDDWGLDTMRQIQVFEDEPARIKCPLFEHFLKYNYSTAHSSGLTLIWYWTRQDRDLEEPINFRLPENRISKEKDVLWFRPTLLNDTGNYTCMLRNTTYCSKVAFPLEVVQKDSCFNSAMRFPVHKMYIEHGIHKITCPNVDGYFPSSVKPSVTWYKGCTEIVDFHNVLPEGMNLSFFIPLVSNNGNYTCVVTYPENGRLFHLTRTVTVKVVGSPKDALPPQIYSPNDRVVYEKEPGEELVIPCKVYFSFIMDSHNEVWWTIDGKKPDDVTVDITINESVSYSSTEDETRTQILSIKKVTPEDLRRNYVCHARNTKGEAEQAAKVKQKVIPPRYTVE

[2] = molecular target: human IL1RAP ectodomain (aa21-367) (human, UniProt Q9NPH3); assay: BLI
rat IL1RAP = molecular target: T2, rat IL1RAP (rat, UniProt Q63621); assay: ELISA
T2 chain: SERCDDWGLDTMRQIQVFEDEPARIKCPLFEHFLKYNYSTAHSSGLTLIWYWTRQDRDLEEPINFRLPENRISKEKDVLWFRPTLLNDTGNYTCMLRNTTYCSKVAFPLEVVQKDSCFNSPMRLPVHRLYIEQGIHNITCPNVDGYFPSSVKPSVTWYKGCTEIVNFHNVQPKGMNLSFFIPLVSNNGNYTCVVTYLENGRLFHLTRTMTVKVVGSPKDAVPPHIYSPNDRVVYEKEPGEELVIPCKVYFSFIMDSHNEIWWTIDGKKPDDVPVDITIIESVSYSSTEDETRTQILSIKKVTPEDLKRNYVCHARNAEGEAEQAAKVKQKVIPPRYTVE

binding result [1]: no binding | binding result (mouse IL1RAP): no binding | Kd [2]: 0.285 nM | binding result (rat IL1RAP): no binding
B1: 3G5 (antibody, V domains shown)
VH: EVQLVESGGVLVKPGGSLKLSCAASGFTFSDYAMSWVRQTPEKRLEWVATITDGGSYAYYTDDVKGRFTVSRDNARNNLFLQMSHLRSEDTGIYYCSRDRWPYYFDFWGRGTTLTVSS
VL: DIQMTQSPTSLSVSVGETVTITCRISENIYSNLAWYQQKEGKSPQLLVYAATKLADGVPSRFSGSGSGTQYSLKINSLQSEDFGNYYCQHFWTTPRTFGGGTKVEIK

binding result [1]: no binding
B2: 43F5 (antibody, V domains shown)
VH: QSLEESGGRLVTPGTPLTLTCKASGFSLSNYWMSWVRQAPGKGLEWIGFITSSDNTYYASWAKGRFTISKASSTTVGLKMTSPTTEDTATYFCARDISGINSVVLWGQGTLVTVSS
VL: DVVMTQTPASVSEPVGGTVTINCQASQSIDSYLSWYQQKPGQPPKFLIYGASNLASGVPSRFKGSRSGTEYTLTISDLECADAATYYCQCTDYSINYIGAFGGGTKVVVE

binding result [1]: no binding | binding result (mouse IL1RAP): no binding | binding result (rat IL1RAP): no binding
B3: 48A5 (antibody, V domains shown)
VH: QEQLEESEGGLFKPTETLTLTCTVSGFSLSYDITWVRQAPGNGLEWIGTIDTSSNTYHATWAKSRSTITKNTNLNTVTLKMTSLTAADTATYFCARGGVHAYAYAPAAFDPWGPGTLVTISS
VL: APVLTQTPSPVSAAVGGTVTISCQSSQSVYNDAYLAWYQQKPGQPPKLLIYLASTLASGVPSRFSGSGSGTQFTLTISGVQCEDAATYYCQGAYYSNDWYYVFGGGTEVVVK
